Experimental data as given in article doi:10.1101/2024.03.07.583849 (bioRxiv, 2024).
“And” between values parts separate entries of the source, which are not always exact repeats. Equal values may be shown once.

Molecular target: the molecule itself
Experiment: SEC

B1: Chlamydomonas reinhardtii alpha-amylase 2 (AMA2), recombinant full-length enzyme (enzyme, UniProt A0A2K3DGK5 1-706, looked up)
chain: MDRSLLSRTSPRMQLGRPQQLPPPTVPLAQVPRLQRRCVVGSRVCQPVVAVRPGRASAGRGGRLVVSSVDMSNSPLSSMDAGEGLDIMFDNNSDAECTVVTVEGKDKAHLLMSLTGGFSSAGLTVISASITSDDGRVLDVFRVQTADGKKVPEEQFPSVREHILSVTATSSRSSMPAIYGIVAAAEVERLKPLRSQSTQNDVDALELAAAEMTQAVAELVATERDIIRMRASNADARTLQTKEANRTEAAAGLERKMAAMQAVLAARRNLATEPEKPKSPTEKLLETLKPPTPMRAAAGAGSGSGSEILLQAFNWESHRQKLYKQLMGRVKDISDAGFTGVWMPPPSDSVSPQGYLPRDLYSLDSAYGSEAELRELIAAFHQNNIKVIADIVVNHRCANSQGSDGKWNKFGGRLAWDASAICSNNPSFGGRGNPKQGDDYAAAPNIDHSQERIRNDIVQWMKYLRNSIGFDGWRFDFVRGYLGSYCKQYIDETVPAMAFGEYWDSCEYTDGVLNYNQDAHRQRTVNWCDSTGGTSAAFDFTTKGILQEAVGRREYWRLVDSQGRPPGVMGMWPSRAITFIDNHDTGSTLNHWPFPSRNLPEGYAYILTHPGTPCVFYDHFYQEENNLRKIILDLLKVRRRNGLNARSKVVMKKSAADVYAAMIDDKVAVKLGPGDWSPNQSGIKVNGKELKVAASGFQFAVWEGQH
- stoichiometry N: 2 and 4
